Measurements published in the RNAGym collection of RNA variant scans (doi:10.7554/elife.90254).

B1: LINE1-full (parent)
chain: UACGUAGGUGGUUUUCCCCUGAUAGUGCUAAGGGGGCCUGGAAGUUUGGACUGGGCAGAGCUCAACACAGCGUGGCAAAGUGGCUGUGGCUAGACUGCCUCUCUGGAUUCCUCGUCACUCAGCAGGGCAUCUCUGAGAGAAAUGCC

Variants of: B1
Assay: self-cleavage, relative activity (ratio to wild type); higher = more cleavage; in vitro, sequencing; the parent is a self-cleaving ribozyme

U85C A121G and U85C A121U are the same in self-cleavage: 0.25 for the first, 0.25 for the second.

Going from G88A A129G to U85A U143A, the self-cleavage rises from 0.07 to 0.08.

Compared with U85A U143C, C90U A141G is lower in self-cleavage: 0.11 for the first, 0.03 for the second.

Going from G89A U109C to G86U G105A, the self-cleavage rises from 0.04 to 0.06.

Compared with U87A U104C, U87A U104A is lower in self-cleavage: 0.11 for the first, 0.06 for the second.

Going from G86U U96G to U87C C145G, the self-cleavage rises from 0.13 to 0.32.

Going from U85G A141G to U87C A107G, the self-cleavage rises from 0.1 to 0.27.

First: G86U A107G
Second: U91C G114A
The self-cleavage of the first is lower: 0.02 for the first, 0.57 for the second.

Going from U91A A121G to U87C U115C, the self-cleavage falls from 0.84 to 0.31.

Compared with U87C U115A, G88U A140G is lower in self-cleavage: 0.17 for the first, 0.04 for the second.

Going from U87G A136U to G89C A107G, the self-cleavage falls from 0.18 to 0.11.

Going from U85A U100C to U87A A107U, the self-cleavage falls from 0.21 to 0.09.

Going from U87A A107G to G89A U100A, the self-cleavage falls from 0.1 to 0.04.

Going from U87C A141G to U85A G125A, the self-cleavage falls from 0.24 to 0.04.

Going from U85C U108A to G89A U96C, the self-cleavage falls from 0.28 to 0.07.

Going from U85G U130C to G88C A141G, the self-cleavage falls from 0.24 to 0.14.

Going from G89U U109A to C84U U143C, the self-cleavage rises from 0.02 to 0.1.

Going from G88A U96A to U91C A141G, the self-cleavage rises from 0.03 to 0.92.

Compared with U85G G106A, U85C A129U is lower in self-cleavage: 0.29 for the first, 0.19 for the second.

First: U85C A129G
Second: U91C C128U
The self-cleavage of the first is lower: 0.16 for the first, 1 for the second.

Going from G89A U130C to C90G A92G, the self-cleavage rises from 0.02 to 0.03.

Going from U87A C145U to U87C U104A, the self-cleavage falls from 0.1 to 0.09.

Going from U87C U104C to U87A C146U, the self-cleavage falls from 0.22 to 0.09.

Going from U85C C98U to G86A A121U, the self-cleavage rises from 0.01 to 0.26.

First: U85C C113U
Second: U85C C113A
The self-cleavage of the first is higher: 0.1 for the first, 0.08 for the second.

Compared with U91C C110U, C90G A121U is lower in self-cleavage: 0.66 for the first, 0.02 for the second.

Going from G89A A142G to G89C G144A, the self-cleavage rises from 0.03 to 0.05.

Going from G89A A117G to C84U A121G, the self-cleavage rises from 0.05 to 0.2.

Compared with U85A U134C, U85A U134A is lower in self-cleavage: 0.13 for the first, 0.06 for the second.

First: G88A U102A
Second: G88A U102C
The self-cleavage of the first is lower: 0.04 for the first, 0.06 for the second.

Going from U85A A121U to G88A U112A, the self-cleavage rises from 0.07 to 0.08.

Compared with U87C C99U, U87C U130C is higher in self-cleavage: 0.13 for the first, 0.35 for the second.

Going from U87C U130A to U87G A140U, the self-cleavage falls from 0.19 to 0.13.

Going from C90G U109C to U85C U115A, the self-cleavage rises from 0.07 to 0.19.

Compared with U87G U143C, U87G U143A is higher in self-cleavage: 0.18 for the first, 0.22 for the second.

Going from U85A G88A to U85A U87G, the self-cleavage falls from 0.23 to 0.07.

First: U85A U87A
Second: C84A U91C
The self-cleavage of the first is lower: 0.07 for the first, 0.13 for the second.

Compared with U91C A129G, G88U A142G is lower in self-cleavage: 0.47 for the first, 0 for the second.

Going from U87A U102C to G86A A92G, the self-cleavage falls from 0.08 to 0.02.

First: C84A U100C
Second: U85G U108C
The self-cleavage of the first is lower: 0.14 for the first, 0.22 for the second.

Compared with G88A A142G, U87C U108A is higher in self-cleavage: 0.06 for the first, 0.15 for the second.

Going from U87C U108C to U87A A141G, the self-cleavage falls from 0.24 to 0.06.

Going from U87A A141U to C84U A129G, the self-cleavage rises from 0.08 to 0.18.

Compared with C84U A138G, G89U A142U is lower in self-cleavage: 0.13 for the first, 0.04 for the second.

First: U87A C123U
Second: C84G A94U
The self-cleavage of the first is lower: 0.06 for the first, 0.13 for the second.

Going from U87A U109C to C90U G114U, the self-cleavage falls from 0.11 to 0.03.

Going from U85G A142G to U87A A140G, the self-cleavage falls from 0.1 to 0.07.

Compared with G88A, G88U is higher in self-cleavage: 0.04 for the first, 0.05 for the second.

Going from G88C to G89A A138U, the self-cleavage falls from 0.11 to 0.05.

Going from G86A U100C to U91C G127A, the self-cleavage rises from 0.1 to 0.53.

Compared with C84A A141G, G86A U119C is lower in self-cleavage: 0.09 for the first, 0.07 for the second.

Going from U91A U130G to U87G C118U, the self-cleavage falls from 1.24 to 0.17.

First: C84U U112A
Second: U85C A94G
The self-cleavage of the first is higher: 0.11 for the first, 0.07 for the second.

Going from U85C A94U to G89A A94G, the self-cleavage falls from 0.14 to 0.07.

First: U85C G127U
Second: U85C G127C
The self-cleavage of the first is lower: 0.14 for the first, 0.24 for the second.

Going from U85A C99G to U91C A140G, the self-cleavage rises from 0.05 to 0.75.

First: G86A G126U
Second: U85A G105A
The self-cleavage of the first is lower: 0.02 for the first, 0.04 for the second.

First: U85G U112A
Second: U87C U91C
The self-cleavage of the first is lower: 0.26 for the first, 0.31 for the second.

First: U87C U91A
Second: U85A U109G
The self-cleavage of the first is higher: 0.2 for the first, 0.05 for the second.

First: U87C U132A
Second: U85C C101A
The self-cleavage of the first is higher: 0.33 for the first, 0.12 for the second.

First: G89A A140U
Second: C84U U134C
The self-cleavage of the first is lower: 0.02 for the first, 0.19 for the second.

Compared with G86A A124C, G86A A124U is higher in self-cleavage: 0.03 for the first, 0.05 for the second.

First: U87A U119G
Second: U91A U119C
The self-cleavage of the first is lower: 0.07 for the first, 0.84 for the second.

Compared with U91A U96C, U87C U102C is higher in self-cleavage: 0.12 for the first, 0.36 for the second.

Compared with G86A A117G, U87A U115A is higher in self-cleavage: 0.09 for the first, 0.1 for the second.

Going from U87A U115C to C84U A136U, the self-cleavage rises from 0.09 to 0.13.

Compared with C84G G93A, U91C C123U is higher in self-cleavage: 0.08 for the first, 0.8 for the second.

First: C90U U134C
Second: G86A U115A
The self-cleavage of the first is higher: 0.04 for the first, 0.01 for the second.

First: C84U A124G
Second: C90U U100C
The self-cleavage of the first is higher: 0.11 for the first, 0 for the second.

First: U91C C133A
Second: U85A C98U
The self-cleavage of the first is higher: 0.74 for the first, 0.09 for the second.

Compared with U85A C98G, U85A C98A is lower in self-cleavage: 0.28 for the first, 0.07 for the second.

Compared with U87A U130C, U87A U130A is higher in self-cleavage: 0.08 for the first, 0.09 for the second.

Going from C90U U108A to C90U U108C, the self-cleavage falls from 0.05 to 0.03.

First: G89A U143C
Second: U87A U134C
The self-cleavage of the first is lower: 0.03 for the first, 0.1 for the second.

Compared with G88A U115C, U85G U102C is higher in self-cleavage: 0.06 for the first, 0.55 for the second.

First: U85A U119C
Second: U85A G127A
The self-cleavage of the first is higher: 0.09 for the first, 0.06 for the second.

Going from C84A C145U to C90G A136U, the self-cleavage falls from 0.08 to 0.04.

Going from C90U U132C to C90U U132A, the self-cleavage falls from 0.03 to 0.01.

Compared with U87A U112A, U87G A117C is higher in self-cleavage: 0.07 for the first, 0.31 for the second.

Compared with U85C A141G, U87C A92G is lower in self-cleavage: 0.16 for the first, 0.1 for the second.

First: G88A U108C
Second: C84U U100C
The self-cleavage of the first is lower: 0.05 for the first, 0.21 for the second.

First: G88U G126A
Second: U87G U115C
The self-cleavage of the first is lower: 0 for the first, 0.03 for the second.

U85A U130C and U85A U130A are the same in self-cleavage: 0.1 for the first, 0.1 for the second.

Variant U85C U100A has a self-cleavage of 0.
